The record followed here is PMC4091835.

Test [1] has as its target Cdc42_(G12V)–IRSp53 complex (BAR–SH3 FRET reporter titrated first with GMP-PNP–Cdc42_(G12V)) (human) (UniProt P60953). The test can be described thus: other fluorescence titration.
The target of test [2] is Eps8–IRSp53 complex (BAR–SH3 FRET reporter saturated with Eps8) (human) (UniProt Q12929). Briefly: other fluorescence titration.
Test [3] concerns the target BAR–SH3 FRET reporter (IRSp53 construct BAR–SH3 S452C, labelled with fluorescein maleimide and rhodamine maleimide) (human). Briefly: other fluorescence titration.
Test [4] addresses IRSp53 construct BAR–SH3 (human). Briefly: ITC.
The target of test [5] is IRSp53 BAR–SH3 double mutant P278D P281D (human). Briefly: ITC.

Sequence of Human Eps8 (Q12929 whole entry): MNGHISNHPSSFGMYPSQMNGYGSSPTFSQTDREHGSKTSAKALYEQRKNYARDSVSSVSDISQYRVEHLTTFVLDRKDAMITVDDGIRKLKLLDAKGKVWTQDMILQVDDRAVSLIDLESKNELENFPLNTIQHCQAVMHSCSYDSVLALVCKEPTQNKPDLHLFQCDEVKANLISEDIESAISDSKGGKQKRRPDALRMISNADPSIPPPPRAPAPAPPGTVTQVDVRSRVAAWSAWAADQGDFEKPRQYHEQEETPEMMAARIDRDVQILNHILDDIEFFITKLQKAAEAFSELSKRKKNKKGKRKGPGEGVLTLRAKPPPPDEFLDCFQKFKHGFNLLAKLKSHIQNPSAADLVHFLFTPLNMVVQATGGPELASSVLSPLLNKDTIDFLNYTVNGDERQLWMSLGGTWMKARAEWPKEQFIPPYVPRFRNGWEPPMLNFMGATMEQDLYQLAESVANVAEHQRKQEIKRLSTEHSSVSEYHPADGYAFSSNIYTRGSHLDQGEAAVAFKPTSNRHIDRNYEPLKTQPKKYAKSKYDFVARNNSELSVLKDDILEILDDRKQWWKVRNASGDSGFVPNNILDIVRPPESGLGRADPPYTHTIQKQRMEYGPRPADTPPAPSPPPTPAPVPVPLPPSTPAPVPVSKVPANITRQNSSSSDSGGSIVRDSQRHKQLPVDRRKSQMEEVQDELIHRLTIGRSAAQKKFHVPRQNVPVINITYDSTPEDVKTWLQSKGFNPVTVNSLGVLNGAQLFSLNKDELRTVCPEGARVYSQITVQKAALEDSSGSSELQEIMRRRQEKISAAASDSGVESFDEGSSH

As to “Human Eps8 (from UniProt Q12929 1-822) (natural protein)”, the Kd in test [1] is 1.1 µM.
As for “Human Cdc42 residues 1–178, constitutively active mutant G12V (from UniProt P60953 1-178) (domain or fragment)”, the Kd in test [2] came out at 10.7 µM; in test [3], 2.4 µM; in test [4], 4.7 µM; in test [5], 10.7 µM.
